Data published in the supplement of paper PMC9170038.

Tested on: MS2 coat protein
Assay: apparent KD of MS2 coat protein; designed switch direction (-1 OFF switch, 1 ON switch): -1; higher = weaker reporter binding
How it was run: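 RNA switches sharing common flanks were transcribed by stalled E. coli RNA polymerase on Illumina chips. A doubling series of SNAP-549-labelled MS2 coat protein, from 0.7 or 1.5 nM to 3 µM, was applied in Tris-HCl pH 7.5 buffer with KCl, MgCl2, BSA, DTT, tRNA and Tween-20. Each step lasted 0.8–1.5 h at the bottom of the series and 10–20 min at the top. Normalised cluster fluorescence was curve-fitted, giving apparent KD as the per-design median over clusters.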

[1] = Eterna round: R95, input ligand: microRNA oligo, concentration not stated
[2] = input ligand: microRNA oligo, concentration not stated
[3] = Eterna round: R95, input ligand: FMN 200 uM
[4] = Eterna round: R95, input ligand: none

Sequence	apparent KD of MS2 coat protein [1]	apparent KD of MS2 coat protein [2]	apparent KD of MS2 coat protein (input ligand: FMN 200 uM)	apparent KD of MS2 coat protein (input ligand: none)	apparent KD of MS2 coat protein [3]	apparent KD of MS2 coat protein [4]
CUUUUGUGAGGAUAUCAGUAGUAAAUAAAUAAAAUAACUACUGAGAAGGCACAUGAGGAUCACCCAUGUUCCUC [Mat - Exclusion 4 - Mod of Salish - D69] (puzzle: Exclusion 4)	38.6 nM					
AUGAGAGCAGGAUAUGCAGGUGUGCCGGAAGAAAGAAGAAGACAUGAGGAUCACCCAUGUAGAAGGGCUAGCCC [Bibidi] (Eterna round: R96, puzzle: Exclusion 2)		15.2 nM				
UUAAUUAGCAGGCAAGAUCAUUACAUGAGGAUCACCCAUGUCGAGGAUAUCAGCUCGUUUAGAGCUGAGAAGGCGACAGCCUGC [ExNG3/13-A2] (Eterna round: R96, puzzle: Exclusion NG 3)		289 nM	711 nM	417 nM		
GAAAAGCGAGGAUAUACAUGAGGAUCACCCAUGUAGCAAAAGCGUGCGGCGGUCGGAGGUAGAAGGCGCACAAC [Zamara] (puzzle: Exclusion 3)	51.8 nM				81.2 nM	100 nM
GGAUCGAAAGUGAGGAUAUGCUGGUCCUUGGAUCAGCAGAAGGCACAUGAGGAUCACCCAUGUGGGAACGGUCC [Eli bmx4 4.46] (Eterna round: R97, puzzle: Brourd's mod of Exclusion 4)			1440 nM	298 nM		
ACACAAGCCCUUUGCUCGUUUUAAUACAGCGGGCUCUCCACAUGAGGAUCACCCAUGUAGGCCUUGUUCCAAGGCCG [Maerarce] (puzzle: Sensor v3, turn-off variant 2)	22.3 nM				22.6 nM	21.8 nM
GAGAAAGCAAACAGGUGAAACAUGAGGAUCACCCAUGUCCUCAUUUGCUCGUCUUAUAAGCUAUGCGAAAGCAUAGC [Mat - Sensor v3 - turn-off var 1 - Eli Mod - D54] (puzzle: Sensor v3, turn-off variant 1)	642 nM				63.5 nM	58.7 nM
CCAAGCUUUUUCAAUAACAACAUGAGGAUCACCCAUGUUUAAGCUAUUACUUUUGGGCUCUUUAGUGCUAGUCUUAU [JR_STOV1_Sub038] (Eterna round: R97, puzzle: Sensor, turn-off variant 1)			18 nM	18.2 nM		
CGGGAGGGACAAGCUGUUUGCACGUCUGGUAGUGAUGCAACAUGAGGAUCACCCAUGUAUAGGGUGUGAGAGGAUGG [JR_SV3TOV2_Sub050] (Eterna round: R96, puzzle: Sensor v3, turn-off variant 2)		149 nM	1330 nM	338 nM		
AAAUUUGGAGGAUAUUCAUUGGGAAACAUGAGGAUCACCCAUGUGAUAUAAGGGAAAUCCGGAGAAGGCUAAAUUU [-17.1, -14.1 kcal, 37% A] (Eterna round: R97, puzzle: Exclusion 5)			30.7 nM	28.2 nM		
AACCCAAUGGCAGGAUAUAGUAGACGACUCGGUCUAGAAGGGCCGCACAUGACAUGAGGAUCACCCAUGUUUCAUCUGAGGGAC [Eternabot solution 27] (Eterna round: R96, puzzle: Exclusion NG 1)		14 nM	14.1 nM	19.4 nM		
UUUCUUCAUAUCACAUGAGGAUCACCCAUGUUAUUCAUCGCGUAGGAUAUCGAGAUUUUUUUUUACGAGAAGGACGUAUUGAUA [JR_ExcNG3_Sub073] (Eterna round: R96, puzzle: Exclusion NG 3)		51.6 nM	49 nM	52.2 nM		
UUCCUACAUGAGGAUCACCCAUGUCAGGAUAUCUCCUCGUCGCCAAUGGGCGACGAAUAGAGAAGGGACAGGAA [Rerizaatra] (puzzle: Exclusion 1)	13.1 nM					
GAAGAGGUAGGAUAUACGAAAAAAAAGGGUAGAAAAAAAACACAUGAGGAUCACCCAUGUAGAAGGACCAAAAG [salish99_ex2_r3_034] (puzzle: Exclusion 2)	36 nM				102 nM	23.1 nM
GUGUAGGUAGGAUAUACAUGAGGAUCACCCAUGUGAAUAAGAUAGAAUAAGAUAAAGUGUAGAAGGACUAGUGU [Excluse me!!! 14 - Jieux - Exclusion 3] (puzzle: Exclusion 3)	38.7 nM					
UUUUAGGGAGGAUAUACAUUUUUUUUAUUAUCCUCAUUAUUACAUGAGGAUCACCCAUGUAGAAGGCCCAUUUU [My Design] (puzzle: Exclusion 2)	84 nM					
GAGUUAGCGUGAGGAAUAUACAUGAGGAUCACCCAUGUUAACAAAUAUAUUGCUCGUCUUAUAACAACAAUUAACUC [Alarm 8 - Jieux - Sensor, turn-off variant 1] (Eterna round: R97, puzzle: Sensor, turn-off variant 1)			14.9 nM	16.5 nM		

Sequence	apparent KD of MS2 coat protein [1]	apparent KD of MS2 coat protein [2]	apparent KD of MS2 coat protein (input ligand: FMN 200 uM)	apparent KD of MS2 coat protein (input ligand: none)	apparent KD of MS2 coat protein [3]	apparent KD of MS2 coat protein [4]
ACGAGGGUUACAGGAUAUGAAGCUAAAACGGCGUUAGAAGGGUAUACAGAGUUACAUGAGGAUCACCCAUGUUGUGACUUCGAA [AK ExNG1-V2-4] (Eterna round: R96, puzzle: Exclusion NG 1)		29.4 nM				
GUUAUCGGAGGAUAUACAUGAGGAUCACCCAUGUGCCAGUAUGUACUAAUCCUUUAGAGUAGAAGGUCGAUAGG [Eternabot (L1) Solution 72] (Eterna round: R97, puzzle: Exclusion 3)			198 nM	118 nM		
AGUAACUAUCACGAAAGUGAUAGUUACACAAGCAGUGAUACAUGAGGAUCACCCAUGUCCUCAUUUGCUCGUCUUAU [Sensor 3 - 28] (puzzle: Sensor v3, turn-off variant 2)	698 nM				83.6 nM	91 nM
GGAUAUAGGCGAGGAUAUACGCACCACUAACGAGUAGAAGGCGCACAUGAGGAUCACCCAUGUGAGUUCUCAAUAUGAUACACG [Prohibition 70 - Jieux - Exclusion NG 1] (Eterna round: R96, puzzle: Exclusion NG 1)		14.1 nM	14.9 nM	18.6 nM		
CUUUACAAGCUAAGAUCCUACAUGAGGAUCACCCAUGUGGUCCGGUGACGUGAGUCACCGGACUUAGCUCGUCUUGU [salish99_S_TOV1_R5_096] (Eterna round: R97, puzzle: Sensor, turn-off variant 1)			41.5 nM	42.6 nM		
GGAUAAAACUGAGGAUAUGCGGAGAGAGAGAGAGCAGAAGGCAGACAUGAGGAUCACCCAUGUGAGUUCUCGAUAAGAAACACG [Prohibition 57 - Jieux - Exclusion NG 1] (Eterna round: R96, puzzle: Exclusion NG 1)		24 nM	107 nM	31.8 nM		
AUACACUGAGGAUAUACAUGAGGAUCACCCAUGUGGAAAGCCUCUGGCGGAACUUCGUGUAGAAGGCAGCCACG [Esatdi] (puzzle: Exclusion 3)	13.9 nM				18 nM	13.4 nM
AAGCUGUGAGGAUAUACAUGAGGAUCACCCAUGUUAAGGAAGUCUUGGUUAAUUUGGUGUAGAAGGCGCUUAUU [JR_Ex3_Sub018] (Eterna round: R97, puzzle: Exclusion 3)			32.6 nM	32.4 nM		
UGUUGUUCAGGAUAUGAUGUAUAAUACAUGAGGAUCACCCAUGUAGAUCCUGAAUUAACAUCAGAAGGGAAUAUUG [salish99_ex5_r4_101] (Eterna round: R97, puzzle: Exclusion 5)			19 nM	17 nM		
CCGCAAAUGCAGGAUAUCGUAUCGGAUACGAUACGAGAAGGGCAUACAUGAGGAUCACCCAUGUGUCCUAGCGG [Fiskers Ex 6 - 43] (puzzle: Exclusion 6)	16 nM					
AUAGUGUUAGGAUAUGCUUAUGCUGGGUAGUCCAGUAUGGAGUAGAAGGGACAUGAGGAUCACCCAUGUGCUCA [EX4 #40] (Eterna round: R97, puzzle: Exclusion 4)			18.6 nM	20.5 nM		
UUAAGUUCAGGAUAUGAUGAAUUAAACAUGAGGAUCACCCAUGUAGAUCCUGAAAUAACAUCAGAAGGGAAUAUUU [JL-ex5-4.51 Brourd mod] (Eterna round: R97, puzzle: Exclusion 5)			57 nM	17.6 nM		
GCAAGUUUUUUGUUUUUUAACAUGAGGAUCACCCAUGUGCGGUUAUAGUGUGUGUGAUUAGGAUCUUGUGGUCUUAG [JR_SV3TOV1_Sub102] (puzzle: Sensor v3, turn-off variant 1)	123 nM				67.8 nM	98.9 nM
AAGCUGGUAGGAUAUCGUACACGUAACAUGAGGAUCACCCAUGUGCGCUAUGUUGGAACUCGAGAAGGGCCCAUUC [Eternabot (L2) Solution 3] (Eterna round: R97, puzzle: Exclusion 5)			19.3 nM	18.5 nM		
AGAGUGUGAGGAUAUAUGGUAAAAGUGAAGAGAGAGGAGGAGUAGAAGGUACAUGAGGAUCACCCAUGUUUGGA [JR_Exclu4_Sub074] (puzzle: Exclusion 4)	38.1 nM					
GUCAUCAAACAUGGGAUUAACAUGAGGAUCACCCAUGUUAACAAGUUUUUUGCUCGUCUUAUAAUAAGUUUGAUGAC [Antenna 10 - Jieux - Sensor, turn-off variant 1] (Eterna round: R97, puzzle: Sensor, turn-off variant 1)			7.6 nM	13 nM		
UUUUUGUCAGGAUAUGACUAGAUGCACGUUAGUGUGUUUACUUAGAAGGGACAUGAGGAUCACCCAUGUAUUCC [Bring Us a Shrubbery-14] (puzzle: Exclusion 4)	26.4 nM					
